Measured values reported in publication PMC12309606.

Tests used:
[1] = target: Biotinylated C-terminal cysteine-tagged MR1–5-OP-RU (SPR) (human) (UniProt Q95460); test: SPR
[2] = target: MR1 on C1R.MR1 cells pulsed with 5-OP-RU (UniProt Q95460); test: flow cytometry, TCR tetramer staining on C1R.MR1 cells; details: 5-OP-RU (10 µM), pulsed for 5 h
[3] = target: MR1 on C1R.MR1 cells pulsed with Ac-6-FP (UniProt Q95460); test: as above; details: Ac-6-FP (10 µM), pulsed for 5 h
[4] = target: MR1 on untreated C1R.MR1 cells (UniProt Q95460); test: as above; details: No Ligand
M33-64 TCR tetramer = test: flow cytometry, TCR tetramer staining on C1R.MR1 mutant cells; details: 1 μM 5-OP-RU for 3 h; stained 30 min at room temperature; parent: est. 6400; read off a plot
[5] = target: MAV36 TCR Gln99β alanine mutant on HEK293T cells (human); test: flow cytometry on cells; PE-labeled MR1–5-OP-RU tetramer (0.5 μg/ml, nonsaturating) staining of HEK293T cells transiently expressing MAV36 TCR or alanine mutants with CD3, 15 min at room temperature; gates normalised for TCR level by anti-Vβ3
[6] = target: MAV36 TCR Ser49β alanine mutant on HEK293T cells (human); test: as above

## A-F7 TCR (TRAV1-2–TRBV6-1), soluble
[1]
  Kd: 2.7 µM

## M33-64 TCR tetramer Tyr95αAla
[2]
  response: 61300 MFI
[3]
  response: 166 MFI
[4]
  response: 162 MFI

## M33-64 TCR tetramer Tyr95αPhe
[2]
  response: 140000 MFI
[3]
  response: 20900 MFI
[4]
  response: 171 MFI

## MR1 on C1R.MR1 cells pulsed with 5-OP-RU (from UniProt Q95460) D57A
M33-64 TCR tetramer
  response: 6100 MFI

## MR1 on C1R.MR1 cells pulsed with 5-OP-RU (from UniProt Q95460) E158A
M33-64 TCR tetramer
  response: 2800 MFI

## MR1 on C1R.MR1 cells pulsed with 5-OP-RU (from UniProt Q95460) H148A
M33-64 TCR tetramer
  response: 4600 MFI

## MR1 on C1R.MR1 cells pulsed with 5-OP-RU (from UniProt Q95460) L65A
M33-64 TCR tetramer
  response: 1300 MFI

## MR1 on C1R.MR1 cells pulsed with 5-OP-RU (from UniProt Q95460) L151A
M33-64 TCR tetramer
  response: 7000 MFI

## MR1 on C1R.MR1 cells pulsed with 5-OP-RU (from UniProt Q95460) M72A
M33-64 TCR tetramer
  response: 5900 MFI

## MR1 on C1R.MR1 cells pulsed with 5-OP-RU (from UniProt Q95460) N146A
M33-64 TCR tetramer
  response: 4000 MFI

## MR1 on C1R.MR1 cells pulsed with 5-OP-RU (from UniProt Q95460) N155A
M33-64 TCR tetramer
  response: 1600 MFI

## MR1 on C1R.MR1 cells pulsed with 5-OP-RU (from UniProt Q95460) Q141A
M33-64 TCR tetramer
  response: 5400 MFI

## MR1 on C1R.MR1 cells pulsed with 5-OP-RU (from UniProt Q95460) R61A
M33-64 TCR tetramer
  response: 5000 MFI

## MR1 on C1R.MR1 cells pulsed with 5-OP-RU (from UniProt Q95460) R79A
M33-64 TCR tetramer
  response: 6600 MFI

## MR1 on C1R.MR1 cells pulsed with 5-OP-RU (from UniProt Q95460) R167A
M33-64 TCR tetramer
  response: 5700 MFI

## MR1 on C1R.MR1 cells pulsed with 5-OP-RU (from UniProt Q95460) T138A
M33-64 TCR tetramer
  response: 5500 MFI

## MR1 on C1R.MR1 cells pulsed with 5-OP-RU (from UniProt Q95460) V75A
M33-64 TCR tetramer
  response: 6400 MFI

## PE-labeled MR1–5-OP-RU tetramer (from UniProt Q95460 23-341; P61769 21-119) (complex)
[5]
  reduction of tetramer staining against the wildtype TCR: 50%
[6]
  reduction of tetramer staining against the wildtype TCR: 50%
